The target of the assay is SNAP-tagged murine µOR on HEK293 cells (murine, UniProt P42866, SNAP-Lumi4-Tb (terbium cryptate) on the SNAP tag). The assay can be described thus: AlphaScreen or HTRF. On the technique in general: Alpha assays give light when donor and acceptor beads are brought close together.
SNAP-tagged murine µOR on HEK293 cells, sequence (P42866 whole entry): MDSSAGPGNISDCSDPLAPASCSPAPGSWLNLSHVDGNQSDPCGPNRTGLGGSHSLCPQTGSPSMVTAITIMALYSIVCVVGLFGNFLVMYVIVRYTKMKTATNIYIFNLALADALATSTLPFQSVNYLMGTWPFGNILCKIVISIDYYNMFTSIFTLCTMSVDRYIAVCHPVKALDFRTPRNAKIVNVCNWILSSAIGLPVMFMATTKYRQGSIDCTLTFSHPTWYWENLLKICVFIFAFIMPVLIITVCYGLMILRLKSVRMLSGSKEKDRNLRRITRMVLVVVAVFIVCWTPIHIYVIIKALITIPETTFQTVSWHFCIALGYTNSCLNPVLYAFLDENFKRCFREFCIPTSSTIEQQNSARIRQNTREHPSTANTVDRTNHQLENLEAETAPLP

B1: mNbE (N45K, Q117K, Q120P)-6xHis (VHH)
VHH: QVQLVESGGGLVQAGGSLRLSCAASGSISSISTMGWYRQAPGKERELVAAITSGGSTNYADSVKGRFTISRDNAKNTVYLQMNSLKPEDTAVYYCNFKYYSGSYFYKSEYDYWGKGTPVTVSS
Turning to B1, the binding result is “binds”.

Source of the values: paper PMC11464722 (Nature Communications, 2024).
